Tests used:
MORF WH1 = biological target: T1, MORF WH1 (Homo sapiens, UniProt Q8WYB5 5-84); experiment: EMSA
T1 sequence: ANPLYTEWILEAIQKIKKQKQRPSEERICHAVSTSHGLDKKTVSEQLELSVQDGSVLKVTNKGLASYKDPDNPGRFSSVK

MOZ WH1 = biological target: T2, MOZ WH1 (Homo sapiens, UniProt Q92794 2-86); experiment: NMR
T2 sequence: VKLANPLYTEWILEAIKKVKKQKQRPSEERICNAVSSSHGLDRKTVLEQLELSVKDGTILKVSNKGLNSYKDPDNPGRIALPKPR

MORF WH1;p300 TAZ2 = MORF WH1;p300 TAZ2 (Homo sapiens;Homo sapiens?, UniProt Q8WYB5;Q09472 5-84;1722-1812, |); experiment: NMR
Sequence of MORF WH1;p300 TAZ2 (Q09472 1722-1812, one chain of several): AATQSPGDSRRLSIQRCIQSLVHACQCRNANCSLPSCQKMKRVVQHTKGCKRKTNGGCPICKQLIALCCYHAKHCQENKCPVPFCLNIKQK

Measured: binding result

B1: CpG-DNA16 (dsDNA)
DNA 1: TAACCTGCGCACCATA
DNA 2: TATGGTGCGCAGGTTA
binds: MORF WH1 | MOZ WH1 | MORF WH1;p300 TAZ2
